Measured values reported in patent publication US20230002481A1 (Chugai, published 2023).

Target: T1, recombinant cyno C1r2s2 His/Flag tetramer (cynomolgus monkey, limits assumed)
T1 construct: Heterotetramer of two C1r-His and two C1s-Flag chains, co-expressed in FreeStyle293-F cells; also called cyno C1r2s2s
T1 chain 1: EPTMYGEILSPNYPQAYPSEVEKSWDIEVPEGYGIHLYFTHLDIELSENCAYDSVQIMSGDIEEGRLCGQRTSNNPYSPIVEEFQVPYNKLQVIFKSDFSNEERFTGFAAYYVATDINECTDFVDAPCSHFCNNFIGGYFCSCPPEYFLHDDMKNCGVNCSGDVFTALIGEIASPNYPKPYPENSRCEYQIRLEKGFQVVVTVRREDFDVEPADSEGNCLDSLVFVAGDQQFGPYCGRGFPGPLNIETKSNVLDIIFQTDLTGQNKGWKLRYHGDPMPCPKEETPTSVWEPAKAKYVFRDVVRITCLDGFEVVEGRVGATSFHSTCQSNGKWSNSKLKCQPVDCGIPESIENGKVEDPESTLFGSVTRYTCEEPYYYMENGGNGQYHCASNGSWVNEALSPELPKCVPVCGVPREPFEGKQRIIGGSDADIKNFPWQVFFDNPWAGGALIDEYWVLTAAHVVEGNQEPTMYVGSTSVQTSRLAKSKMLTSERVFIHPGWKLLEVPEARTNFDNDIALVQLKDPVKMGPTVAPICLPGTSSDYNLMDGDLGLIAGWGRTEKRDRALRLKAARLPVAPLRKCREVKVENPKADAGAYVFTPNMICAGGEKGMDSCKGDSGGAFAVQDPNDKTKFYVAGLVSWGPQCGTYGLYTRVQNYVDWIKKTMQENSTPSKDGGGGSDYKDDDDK
T1 chain 2: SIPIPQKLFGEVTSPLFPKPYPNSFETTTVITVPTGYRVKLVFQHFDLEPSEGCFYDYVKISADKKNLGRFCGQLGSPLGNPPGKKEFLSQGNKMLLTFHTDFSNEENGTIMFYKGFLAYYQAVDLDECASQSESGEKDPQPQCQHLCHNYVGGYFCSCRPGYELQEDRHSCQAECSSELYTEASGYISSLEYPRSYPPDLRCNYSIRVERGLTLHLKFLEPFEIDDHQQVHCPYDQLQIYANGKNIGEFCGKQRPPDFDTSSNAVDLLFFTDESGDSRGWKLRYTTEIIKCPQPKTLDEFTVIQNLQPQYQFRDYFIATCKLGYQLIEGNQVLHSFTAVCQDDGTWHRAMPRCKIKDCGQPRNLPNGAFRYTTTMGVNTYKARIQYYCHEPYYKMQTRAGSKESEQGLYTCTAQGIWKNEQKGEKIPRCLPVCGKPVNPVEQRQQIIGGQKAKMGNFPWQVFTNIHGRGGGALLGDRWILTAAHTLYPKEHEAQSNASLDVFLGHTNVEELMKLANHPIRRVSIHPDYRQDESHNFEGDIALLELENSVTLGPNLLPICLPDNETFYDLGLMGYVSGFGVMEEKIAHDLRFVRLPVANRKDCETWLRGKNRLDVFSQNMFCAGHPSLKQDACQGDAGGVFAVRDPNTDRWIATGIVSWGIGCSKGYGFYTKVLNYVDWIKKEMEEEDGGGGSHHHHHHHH
Test: SPR (Biacore), antibody captured on ProA/G, antigen as analyte, 37 C, pH7.4, 1.2 mM CaCl2; pH 7.4
Method: The kinetic parameters of anti-C1s antibodies against recombinant human C1s (as described in PCT/JP2018/042054), human C1r2s2, and cyno C1r2s2 His/Flag (also referred as cyno C1r2s2 in the Table and Figures) were assessed at pH7.4 and pH5.8, at 37 degrees C. using BIACORE (registered trademark) T200 instrument (GE Healthcare) or BIACORE 4000 (GE Healthcare). ProAG (Pierce) was immobilized onto a CM4 sensorchip using amine coupling kit (GE Healthcare) according to the recommended settings by GE Healthcare. Antibodies and analytes were diluted into the respective running buffers, ACES pH7.4 and pH5.8 (20 mM ACES, 150 mM NaCl, 1.2 mM CaCl₂, 1 mg/ml BSA, 1 mg/ml CMD, 0.05% Tween 20, 0.005 w/v % NaN₃). Each antibody was captured onto the sensor surface by ProA/G. Antibody capture levels were typically 100-200 resonance units (RU). Then, recombinant C1s was injected at concentrations of 25 and 50 nM followed by dissociation at pH7.4 and pH5.8. The surface was regenerated using 10 mM Glycine-HCl, pH1.5. Kinetic parameters at neutral pH conditions and acidic conditions were determined by fitting the sensorgrams with 1:1 binding model using BIACORE (registered trademark) T200 Evaluation software, version 2.0 (GE Healthcare) or BIACORE 4000 Evaluation software. The dissociation rate at pH5.8 (after dissociation at pH7.4, indicated as pH5.8* in TABLE 2) was determined by processing and fitting data using Scrubber 2.0 (BioLogic Software) curve fitting software. The association rate (ka), dissociation rate (kd), binding affinity (KD) at pH7.4 and pH5.8 condition, and dissociation rate (kd) at pH5.8* condition of the antibodies are listed in TABLE 2. Some kinetic parameters of COS0098pHv1 in acidic condition were not correctly calculated because of its weak binding response.
Also, to observe the cross-reactivity of anti-C1s antibodies against human C1r2s2 and cyno C1r2s2 (cyno C1r2s2 His/Flag), BIACORE (registered trademark) kinetics analysis was performed.

B1: COS0098bb (antibody, V domains shown)
VH: QSVEESGGRLVTPGTPLTLTCTVSGFSLTKYTVSWVRQAPGKGLEWIGIINTGGSAYYATWAKGRFTFSKTSTTVDLQITSPTTEDTATYFCARGNGDTDYTNLWGPGTLVTVSS
VL: QVLTQTPSSVSEPVGGTVTINCQASENIYSALAWYQQKPGQPPKLLIYGASNLESGVPSRFKGSGSGTQFTLTISDLECADAATYYCQQYYFTSSTFGGGTKVEIK
notes: Anti-C1s rabbit antibody, parent of COS0098pHv1; the antibody was captured by ProA/G; also called anti-C1s antibody COS0098bb
  Kd: 0.0821 nM
  koff: 8.1e-05 s⁻¹
  kon: 987000 M⁻¹ s⁻¹
